PMC3674922, “Single-molecule photobleaching reveals increased MET receptor dimerization upon ligand binding in intact cells” (BMC Biophysics, 2013)

Biological target: T1, soluble MET ectodomain (MET928) (human, UniProt P08581 25-932)
T1 construct: MET receptor tyrosine kinase, human, soluble complete ectodomain (MET928)
Assay: fluorescence correlation spectroscopy (FCS); in solution; 1 nM InlB-ATTO647N, MET928 titrated from 0.01 nM to 1-2 uM; PBS with 0.05% Tween-20; at least 3 h at room temperature; objective at 20°C; diffusion time fitted to a 1:1 binding model
Conditions: both partners purified

T1 sequence (P08581 25-932): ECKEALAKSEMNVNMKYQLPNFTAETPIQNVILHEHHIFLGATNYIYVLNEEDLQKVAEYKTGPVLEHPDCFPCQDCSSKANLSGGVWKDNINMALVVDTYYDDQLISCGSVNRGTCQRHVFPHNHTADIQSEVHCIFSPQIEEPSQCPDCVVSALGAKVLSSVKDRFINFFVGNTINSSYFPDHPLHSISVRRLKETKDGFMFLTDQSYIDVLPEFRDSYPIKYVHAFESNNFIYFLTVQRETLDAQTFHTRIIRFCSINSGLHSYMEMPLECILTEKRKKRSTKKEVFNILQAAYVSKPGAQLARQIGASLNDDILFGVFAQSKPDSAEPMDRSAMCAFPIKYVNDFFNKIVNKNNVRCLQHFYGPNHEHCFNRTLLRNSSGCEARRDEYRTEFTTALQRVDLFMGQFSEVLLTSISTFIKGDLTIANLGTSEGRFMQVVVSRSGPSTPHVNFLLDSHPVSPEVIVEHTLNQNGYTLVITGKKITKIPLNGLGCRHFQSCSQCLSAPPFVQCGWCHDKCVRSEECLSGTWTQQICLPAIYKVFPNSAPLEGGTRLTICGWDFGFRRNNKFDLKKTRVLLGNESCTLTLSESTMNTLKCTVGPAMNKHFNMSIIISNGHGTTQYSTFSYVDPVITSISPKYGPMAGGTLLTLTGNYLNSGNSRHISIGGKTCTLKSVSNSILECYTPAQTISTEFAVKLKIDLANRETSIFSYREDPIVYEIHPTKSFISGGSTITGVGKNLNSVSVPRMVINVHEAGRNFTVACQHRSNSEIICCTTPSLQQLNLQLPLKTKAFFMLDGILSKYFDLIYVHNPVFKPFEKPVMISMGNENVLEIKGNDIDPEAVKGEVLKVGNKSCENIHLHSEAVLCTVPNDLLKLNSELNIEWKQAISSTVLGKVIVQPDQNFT

B1: InlB-ATTO647N (InlB321 with C242A and K280C, labelled with ATTO647N at C280) (domain or fragment)
chain: ETITVPTPIKQIFSDDAFAETIKDNLKKKSVTDAVTQNELNSIDQIIANNSDIKSVQGIQYLPNVTKLFLNGNKLTDIKPLANLKNLGWLFLDENKVKDLSSLKDLKKLKSLSLEHNGISDINGLVHLPQLESLYLGNNKITDITVLSRLTKLDTLSLEDNQISDIVPLAGLTKLQNLYLSKNHISDLRALAGLKNLDVLELFSQEALNKPINHQSNLVVPNTVKNTDGSLVTPEIISDDGDYECPNVKWHLPEFTNEVSFIFYQPVTIGKAKARFHGRVTQPLKE
modifications: ATTO647N attached to C280 by maleimide coupling (degree of labeling 0.5)
notes: internalin B (InlB) of Listeria monocytogenes, N-terminal internalin domain, amino acids 36-321 (InlB321); either way residue 280 is cysteine; also called dye-labeled InlB321; internalin domain of InlB
- Kd: 5 ± 0.8 nM
